Entries after “also recorded” stand apart in the source; their conditions may differ.
Key:
α5GABAARs [1] = target: T1, α5GABAARs (Mus musculus, UniProt P22723+Q8BHJ7); assay: Fear conditioning after IL-1β or LPS injection; assay type: in vivo, mice; settings: for contextual fear memory, WT mice (in words): IL-1β 1 μg kg^−1 i.p. or LPS 125 μg kg^−1 i.p. 3 h before conditioning, inverse agonist co-administered; for cued fear memory to a conditioned tone stimulus (in words): mouse, in vivo
Procedure: Pavlovian fear-conditioning tasks were used for behavioral analysis^29. LPS (125 μg kg^−1, i.p., with physiological saline as the vehicle control) or IL-1β (1 μg kg^−1, i.p., with 0.1% bovine serum albumin as the vehicle control) was injected into male 3- to 4-month-old WT and Gabra5−/− mice 3 h before conditioning. The intensity of the electric footshock was 0.5 mA. For some mice, the inverse agonist L-655,708 (0.35 or 0.5 mg kg^−1, i.p.) or vehicle control (10% DMSO, i.p.) was injected 30 min before training. The movement of the mouse was monitored. The percentage of time that each mouse spent in a freezing position was determined using FreezeView software (Version 2.26, Actimetrics Inc, Wilmette, Ill., USA).
We have determined that IL-1β-induced impairment of contextual fear memory can be reversed by pharmacological inhibition of α5GABAA receptors by the inverse agonist MRK-016. Fear conditioning was performed 3 h after injection of IL-1β (1 μg kg^−1, i.p.) in both wild-type (WT) and α5GABAA receptor knock out (Gabra5−/−) mice. Mice were trained to associate a context (contextual fear) and a tone (cued fear) with an aversive electric footshock. 24 h after conditioning each mouse was placed in the training context, and contextual fear memory was measured as the percentage of time spent freezing. Cued fear memory was measured 48 h after training as the percentage of time spent freezing to the conditioned auditory tone in a novel context.

[2] = target: T2, GABAA receptor α5-subtype (Homo sapiens, UniProt P18507+P31644); settings: inverse agonist selective for the α5-subtype; cited from earlier work
T2 sequence (P31644 32-462): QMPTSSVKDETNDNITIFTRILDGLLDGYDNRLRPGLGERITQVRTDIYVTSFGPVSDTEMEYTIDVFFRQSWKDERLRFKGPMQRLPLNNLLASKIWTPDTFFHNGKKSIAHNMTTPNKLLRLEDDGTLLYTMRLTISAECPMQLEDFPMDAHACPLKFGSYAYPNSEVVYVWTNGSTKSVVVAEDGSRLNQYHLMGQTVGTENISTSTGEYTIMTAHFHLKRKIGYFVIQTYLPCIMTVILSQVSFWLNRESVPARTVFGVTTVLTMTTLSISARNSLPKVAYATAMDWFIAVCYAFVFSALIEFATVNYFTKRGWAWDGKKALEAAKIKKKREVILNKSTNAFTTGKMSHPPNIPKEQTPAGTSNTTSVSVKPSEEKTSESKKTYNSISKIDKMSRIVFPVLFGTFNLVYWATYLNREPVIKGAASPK
T2 sequence (P28472 26-473 partner): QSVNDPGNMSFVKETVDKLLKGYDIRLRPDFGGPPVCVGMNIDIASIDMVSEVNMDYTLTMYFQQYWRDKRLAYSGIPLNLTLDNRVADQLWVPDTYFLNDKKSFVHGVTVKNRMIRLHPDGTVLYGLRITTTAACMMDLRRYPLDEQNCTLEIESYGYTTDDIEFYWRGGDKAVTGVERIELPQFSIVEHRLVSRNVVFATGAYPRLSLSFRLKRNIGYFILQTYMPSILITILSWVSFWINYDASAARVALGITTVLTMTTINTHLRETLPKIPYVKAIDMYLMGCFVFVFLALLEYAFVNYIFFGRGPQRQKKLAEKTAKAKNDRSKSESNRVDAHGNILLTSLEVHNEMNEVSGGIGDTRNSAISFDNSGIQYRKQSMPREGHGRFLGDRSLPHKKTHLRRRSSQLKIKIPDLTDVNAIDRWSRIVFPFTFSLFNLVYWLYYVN
T2 sequence (P18507 40-467 limits assumed): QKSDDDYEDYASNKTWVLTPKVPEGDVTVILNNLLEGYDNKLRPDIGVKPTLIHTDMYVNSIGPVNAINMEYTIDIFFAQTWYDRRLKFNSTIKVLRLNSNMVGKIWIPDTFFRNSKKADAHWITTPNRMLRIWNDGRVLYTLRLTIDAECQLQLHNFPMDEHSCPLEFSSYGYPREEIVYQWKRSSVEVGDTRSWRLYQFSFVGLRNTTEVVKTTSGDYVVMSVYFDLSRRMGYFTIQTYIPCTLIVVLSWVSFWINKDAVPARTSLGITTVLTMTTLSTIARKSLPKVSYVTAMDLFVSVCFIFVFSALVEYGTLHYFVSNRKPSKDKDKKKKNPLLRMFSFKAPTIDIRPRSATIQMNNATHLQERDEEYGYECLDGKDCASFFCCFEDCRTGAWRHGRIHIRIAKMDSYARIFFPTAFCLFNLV

α5GABAARs [3] = target: T1, α5GABAARs; assay: Tonic inhibitory current, whole cell voltage-clamp in cultured hippocampal neurons; assay type: cell-based, mice; design: endogenous in cells; host or cells: primary embryonic mouse hippocampal neurons, alone or co-cultured with cortical microglia; settings: for effect on the tonic current (in words): cultured hippocampal neurons
synaptic GABAARs = assay: Miniature inhibitory postsynaptic currents (mIPSCs) in cultured hippocampal neurons; assay type: cell-based, mice; settings: IL-1β 20 ng ml^−1
postsynaptic GABAARs = assay: Whole-cell currents evoked by exogenous GABA (10 μM) in cultured hippocampal neurons; assay type: cell-based, mice; settings: IL-1β 20 ng ml−1; GABA 10 μM; n=9
α5GABAARs [4] = assay: Tonic current in ex vivo hippocampal slices (CA1 pyramidal neurons); assay type: cell-based; settings: slices from WT mice treated with IL-1β 1 μg kg^−1 i.p. 2-3 h before sacrifice, n=6
Procedure: Recordings were performed as previously described^29. Hippocampal slices ([…]) were prepared from male 3- to 4-week-old WT mice with a mixed genetic background (C57BL/6/SvEv129). Mice were injected with vehicle (0.1% bovine serum albumin, i.p.) or IL-1β ([…], i.p.) 2-3 hours before sacrifice. To record the tonic GABAergic current, […] GABA was added, and the GABAAR competitive antagonist Bic ([…]) was applied to reveal the tonic current. All cells were recorded at a holding potential of −60 mV.

α1 subunit of GABAARs = assay: Hippocampal slice cell surface biotinylation assay; assay type: cell-based, C57BL/6 mice; settings: IL-1β 20 ng ml−1, 40 min, n=5
Procedure: (§1) Cell surface biotinylation assay for α5 and α1 subunits of GABAARs was performed as previously described^25. Hippocampal slices ([…]) from male 10- to 14-week-old C57BL/6 mice were treated with IL-1β (20 ng ml^1, 40 min). Anti-GABAAR α1 and α5 antibodies were obtained from PhosphoSolutions (Aurora, Calif., USA).

α5 subunit of GABAARs = assay: Hippocampal slice cell surface biotinylation assay; assay type: cell-based, C57BL/6 mice
Procedure: as §1

T1 sequence (Q8BHJ7 32-463 limits assumed): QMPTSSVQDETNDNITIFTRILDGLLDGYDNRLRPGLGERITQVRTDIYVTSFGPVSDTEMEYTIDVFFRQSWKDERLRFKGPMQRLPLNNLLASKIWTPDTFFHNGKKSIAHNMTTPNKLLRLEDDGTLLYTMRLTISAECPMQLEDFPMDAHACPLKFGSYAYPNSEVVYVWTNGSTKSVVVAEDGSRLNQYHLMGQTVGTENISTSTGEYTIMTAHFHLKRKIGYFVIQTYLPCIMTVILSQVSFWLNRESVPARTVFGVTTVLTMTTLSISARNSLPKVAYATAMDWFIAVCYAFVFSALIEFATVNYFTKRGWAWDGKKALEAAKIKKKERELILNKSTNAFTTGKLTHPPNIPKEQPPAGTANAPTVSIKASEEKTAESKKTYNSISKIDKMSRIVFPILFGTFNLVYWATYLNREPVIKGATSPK
T1 sequence (P63080 26-473 partner): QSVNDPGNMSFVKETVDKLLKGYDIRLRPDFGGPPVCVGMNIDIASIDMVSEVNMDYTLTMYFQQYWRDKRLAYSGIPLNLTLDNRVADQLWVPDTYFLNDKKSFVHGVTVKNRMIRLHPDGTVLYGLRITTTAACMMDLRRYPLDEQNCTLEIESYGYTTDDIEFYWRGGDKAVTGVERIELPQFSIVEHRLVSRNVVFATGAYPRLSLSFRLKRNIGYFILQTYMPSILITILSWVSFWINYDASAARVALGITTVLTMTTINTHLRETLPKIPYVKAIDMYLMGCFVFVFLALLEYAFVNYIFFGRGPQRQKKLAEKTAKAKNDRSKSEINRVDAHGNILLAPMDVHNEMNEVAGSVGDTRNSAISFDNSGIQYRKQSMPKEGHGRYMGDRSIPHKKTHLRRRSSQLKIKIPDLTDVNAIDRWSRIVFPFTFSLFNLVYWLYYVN
T1 sequence (P22723 39-474): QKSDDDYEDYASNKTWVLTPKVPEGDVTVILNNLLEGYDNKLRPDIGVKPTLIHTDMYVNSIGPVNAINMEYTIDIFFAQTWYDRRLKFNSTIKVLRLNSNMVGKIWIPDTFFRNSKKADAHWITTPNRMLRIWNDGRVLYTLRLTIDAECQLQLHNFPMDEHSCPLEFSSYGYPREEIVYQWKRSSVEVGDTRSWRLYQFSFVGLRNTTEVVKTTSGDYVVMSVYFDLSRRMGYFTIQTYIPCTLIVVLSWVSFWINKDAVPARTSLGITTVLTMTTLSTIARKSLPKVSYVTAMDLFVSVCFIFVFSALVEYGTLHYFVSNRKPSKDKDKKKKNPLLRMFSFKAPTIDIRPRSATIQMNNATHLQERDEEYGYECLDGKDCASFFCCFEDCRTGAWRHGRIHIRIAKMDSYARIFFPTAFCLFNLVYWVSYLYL

Cc1cc(-c2nncc3c(C(C)(C)C)c(OCc4ncnn4C)nn23)no1 [MRK-016, 3-(1,1-Dimethylethyl)-7-(5-methyl-3-isoxazolyl)-2-[(1-methyl-1H-1,2,4-triazol-5-yl)methoxy]-pyrazolo[1,5-d][1,2,4]triazine]
contextual fear memory, WT mice (in words) (α5GABAARs [1]): restored freezing scores for contextual fear memory to control values | contextual fear memory, WT mice (in words) (α5GABAARs [1]; listed as MRK-016A): reverses memory deficits associated with inflammation | cued fear memory to a conditioned tone stimulus (in words) (α5GABAARs [1]): did not affect freezing to a conditioned tone stimulus | EC50 [2]: 3 nM | effect on the tonic current (in words) (α5GABAARs [3]): inhibited the tonic current; also recorded: blocks the tonic inhibitory current in hippocampal neurons from mice

B1: IL-1β: pro-inflammatory cytokine interleukin-1β; recombinant mouse IL-1β; IL-13 and IL-β in b369 are misprints (protein, UniProt P10749 118-269, looked up)
Interleukin-1 beta: VPIRQLHYRLRDEQQKSLVLSDPYELKALHLNGQNINQQVIFSMSFVQGEPSNDKIPVALGLKGKNLYLSCVMKDGTPTLQLESVDPKQYPKKKMEKRFVFNKIEVKSKVEFESAEFPNWYISTSQAEHKPVFLGNNSGQDIIDFTMESVSS
reduction of the amplitude of the mIPSCs (synaptic GABAARs): 17.3%±3.1% | reduction of the charge transfer of the mIPSCs (synaptic GABAARs): 22.2%±7.0% | mIPSC Amplitude (synaptic GABAARs; IL-1ra 250 ng ml^−1, mean ± S.E.M., n = 6): 24.7 ± 2.1 pA | mIPSC Area (synaptic GABAARs; IL-1ra 250 ng ml^−1, n = 6): 279.0 pA · ms | mIPSC Decay time (synaptic GABAARs; IL-1ra 250 ng ml^−1, n = 6): 14.8 ± 1.1 ms | mIPSC Frequency (synaptic GABAARs; IL-1ra 250 ng ml^−1, n = 6): 3.7 ± 2.3 Hz | mIPSC Rise time (synaptic GABAARs; IL-1ra 250 ng ml^−1, n = 6): 2.4 ± 0.1 ms | inhibition of the GABA-evoked peak current (postsynaptic GABAARs): 27.8%±2.2% | inhibition of the GABA-evoked steady-state current (postsynaptic GABAARs): 12.7%±1.5% | tonic current (α5GABAARs [4]): 44.9±9.4 pA | surface expression of α1 subunits (in words) (α1 subunit of GABAARs): caused no increase in the surface expression of α1 subunits | α5 subunits expressed on the surface of the neurons (α5 subunit of GABAARs; IL-1β 20 ng ml−1, 40 min, n=3): 183.3%±29.6% | surface expression of α5GABAARs (in words) (α5 subunit of GABAARs; IL-1β 20 ng/ml for 20 or 40 min, preliminary study): dramatically increases the surface expression of α5GABAARs | contextual fear memory, Gabra5−/− mice (in words) (α5GABAARs [1]; IL-1β 1 μg kg^−1 i.p. or LPS 125 μg kg^−1 i.p.): exhibited no such deficits | contextual fear memory, WT mice (in words) (α5GABAARs [1]): showed impairment of contextual fear memory | cued fear memory to a conditioned tone stimulus (in words) (α5GABAARs [1]): cued fear memory to a conditioned tone stimulus was not affected by IL-1β | increase of the amplitude of the tonic current (α5GABAARs [3]; 20 ng ml^−1 for 20 min): 45% | tonic current density (α5GABAARs [3]; IL-1β 20 ng ml^−1 20 min with or without SB203,580 20 μM 30 min): 1.4±0.1 pA pF^−1 | variance of the noise (root mean square deviation) (α5GABAARs [3]; IL-1β 20 ng ml^−1 for 20 min, n=22): 9.8±0.7 pA | tonic current density (α5GABAARs [3]; IL-1β 20 ng ml^−1 for 20 min, revealed by bicuculline 100 μM, n=22): 1.6±0.1 pA pF^−1 | tonic current density (α5GABAARs [3]; IL-1β 60 ng ml^−1 for 3 h, n=6): 2.0±0.3 pA pF^−1 | tonic current density (α5GABAARs [3]; IL-1β for 12-15 h, n=21): 1.3±0.6 pA pF^−1 | effect on the tonic current (in words) (α5GABAARs [3]): increased the amplitude of the tonic current; also recorded: increased the tonic current recorded in wild-type (WT) neurons but not in neurons isolated from Gabra5−/− mice

— US9517265B2, “Methods for the prevention and/or treatment of memory impairment” (The Governing Council of the University of Toronto, priority 2010, dated 2016)
